Data reported in PMC2836930 (Biomacromolecules, 2008).
Values joined by “and” are separate entries in the source; they are usually repeats but may differ in a detail not shown here. Equal values may be shown once. Read-outs that look alike come from different tables or passages of the source.

Assays:
AUC [1] = molecular target: the molecule itself; test: AUC
AUC [2] = molecular target: the molecule itself; test: AUC; remark: listed apart in the source

B1: γ_(52–88)KI (peptide)
peptide: Ac-IDFISTYITKIDKKIQSIEDIIHQIENKISEIKQLIK-NH2
AUC [1]
  stoichiometry N: ~2 and ~4
AUC [2]
  Kd: 4.95 µM
  stoichiometry N: 2 and 4
